In PMC6166240:
Like-named read-outs stand apart in the source and are kept apart here.

Assays:
Assay in all cases: X-ray crystallography
[1] = target: AbdB homeodomain with W motif (crystal construct) (Drosophila, UniProt P09087-2)
[2] = target: T1, AbdB homeodomain with W motif (crystal construct);Exd homeodomain (crystal construct) (Drosophila;Drosophila, UniProt P09087-2;P40427 ;, |)
[3] = target: T1, AbdB homeodomain with W motif (crystal …); remark: listed apart in the source
[4] = target: T1, AbdB homeodomain with W motif (crystal …); remark: listed apart in the source
[5] = target: T1, AbdB homeodomain with W motif (crystal …); remark: listed apart in the source

T1 sequence (P09087 369-452, chain 1 of 2): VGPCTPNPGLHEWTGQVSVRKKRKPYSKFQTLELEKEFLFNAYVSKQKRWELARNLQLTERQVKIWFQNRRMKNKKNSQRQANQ
T1 sequence (P40427 237-310, chain 2 of 2): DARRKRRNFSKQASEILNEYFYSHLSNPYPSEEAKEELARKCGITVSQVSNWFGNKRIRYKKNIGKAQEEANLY
Chain of AbdB homeodomain with W motif (crystal construct) (P09087 369-452): as the sequence (P09087 369-452, chain 1 of 2) above

B1: black (crystal) (dsDNA)
DNA 1: GCATGATAAATGAC
DNA 2: GTCATTTATCATGC
[1]
  binding result: binds
[2]
  binding result: binds

B2: red (crystal) (dsDNA)
DNA 1: GCATGATTTATGAC
DNA 2: GTCATAAATCATGC
[3]
  binding result: binds

B3: magenta (crystal) (dsDNA)
DNA 1: GCATGATTACGAC
DNA 2: GTCGTAATCATGC
[4]
  binding result: binds

B4: blue (crystal) (dsDNA)
DNA 1: GCATGATTAATGAC
DNA 2: GTCATTAATCATGC
[5]
  binding result: binds
